Measurements from the supplement of paper PMC9732359.
± gives the uncertainty stated by the source.

Assay: protein stability index of a GFP-peptide fusion (yeast GPS) (PSI 1-4); higher = more stable; sorted into four equal gates, so the index is relative within each strain
Procedure, shortened: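 Tiled yeast protein peptides of 17 residues were each joined downstream of GFP, on plasmids that also express Cherry. The pooled library was maintained in yeast, and mid-log cultures in leucine-free medium were sorted into four equal gates on the GFP/Cherry ratio. Plasmids from every gate were amplified by PCR and sequenced on Illumina, with barcodes linking reads to strains. The protein stability index of a peptide is its gate-number-weighted read frequency summed over the gates.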

| Sequence | protein stability index (doa10∆) | protein stability index (pdr5∆) | protein stability index (san1∆) | protein stability index (ubr1∆) |
| --- | --- | --- | --- | --- |
| KDTTGPKAISNFLIKLS [YCS4] | 2.09 ± 0.11 | 2.08 ± 0.1 | 1.34 ± 0.14 | 1.52 ± 0.065 |
| LTYDKDLTNNPQDDDSQ [MTR3] | 2.8 ± 0.073 | 3.21 ± 0.099 | 3 ± 0.081 | 3.1 ± 0.075 |
| NDEGVWDLVDERTKQRT [PRP8] | 3.19 ± 0.12 | 3.37 ± 0.13 | 3.35 ± 0.13 | 3.26 ± 0.12 |
| ITKLHLDKDRKALIQRK [RPL26A] | 2.1 ± 0.13 | 1.92 ± 0.094 | 2.49 ± 0.16 | 1.51 ± 0.091 |
| SDSETNHKSKDNNNGDD [SKP1] | 2.9 ± 0.054 | 3.17 ± 0.051 | 3.11 ± 0.04 | 3.15 ± 0.045 |
| RQTLAPYAVLSQFYELR [YJR042W/NUP85] | 1.98 ± 0.12 | 2.75 ± 0.24 | 2.42 ± 0.16 | 2.35 ± 0.09 |
| KISDDELERILKELSNL [RPB4] | 3.16 ± 0.13 | 3.17 ± 0.091 | – | 3 ± 0.1 |
| WAGKRLWDQDIAIAGTG [COR1] | 3.25 ± 0.1 | 3.11 ± 0.12 | 2.56 ± 0.1 | 2.66 ± 0.072 |
| SKQDVEALIEFIYDTEK [FAS2] | 3.23 ± 0.1 | 3.17 ± 0.083 | 3.04 ± 0.13 | 3.08 ± 0.073 |
| LQIKRDVLDDLYRKLQR [CSE2] | 2.94 ± 0.072 | 3.11 ± 0.069 | 3.01 ± 0.085 | 3.35 ± 0.055 |
| PDGTLIASAGKDGEIML [ASC1] | 3.06 ± 0.073 | 3.26 ± 0.091 | 3.29 ± 0.045 | 2.8 ± 0.045 |
| TLEAKIGGLLSKVREEV [RPO31] | 3 ± 0.11 | 3.33 ± 0.11 | 3.6 ± 0.084 | 2.87 ± 0.084 |
| SFHVQKKTCSSCGYPAA [RPL37A] | 1.85 ± 0.091 | 2.13 ± 0.11 | 1.71 ± 0.16 | 2.06 ± 0.068 |
| FVVPTFGQDVSPMINST [SNM1] | 2.94 ± 0.084 | 2.89 ± 0.085 | 2.89 ± 0.056 | 2.84 ± 0.067 |
| MKYAVSKTSENKVSNTV [SIR2] | 2.99 ± 0.13 | 3.16 ± 0.062 | 3.15 ± 0.091 | 2.98 ± 0.052 |
| GIPPPYDKKKRVVVPQA [RPL16B] | 1.83 ± 0.046 | 2.2 ± 0.059 | 1.99 ± 0.12 | 2.13 ± 0.058 |
| VAARGLDIPNVSLVVNF [PRP28] | 2 ± 0.12 | 2.5 ± 0.096 | 2.04 ± 0.12 | 3.1 ± 0.15 |
| APKGSTDPKELYNNAHV [RPC40] | 2.92 ± 0.14 | 2.96 ± 0.082 | 2.68 ± 0.11 | 3.21 ± 0.062 |
| EITAKEVYDFTHAVGNN [FAS1] | 3 ± 0.065 | 3.15 ± 0.051 | 2.92 ± 0.046 | 3.08 ± 0.039 |
| SCSFFAKLSDTLIIDQV [NUT1] | 2.22 ± 0.052 | 1.79 ± 0.051 | 2.06 ± 0.11 | 1.91 ± 0.039 |
| EPKQKANAVQNNNGNSA [SRP21] | 3.07 ± 0.083 | 3.24 ± 0.07 | 2.85 ± 0.19 | 3.24 ± 0.12 |
| RKVEKEKNEKEREIKRR [UBP6] | 3.32 ± 0.056 | 3.27 ± 0.054 | 3.09 ± 0.053 | 3.17 ± 0.068 |
| YSMISLQNCCIIDVGTH [ARP9] | 1.75 ± 0.085 | 1.41 ± 0.067 | 1.2 ± 0.15 | 1.33 ± 0.083 |
| SSKAATPDTKNFFHAKK [SNF12] | 3.12 ± 0.058 | 2.96 ± 0.051 | 2.99 ± 0.048 | 2.93 ± 0.047 |
| EFLYSKAGREELERVNV [QCR8] | – | – | 3.28 ± 0.11 | 3.27 ± 0.17 |
| HCYPRQLCQITCQILES [RRP46] | 1.8 ± 0.059 | 1.9 ± 0.058 | 1.72 ± 0.088 | 2 ± 0.048 |
